We go through three molecules from patent publication US20110318757A1 (MAB FACTORY, published 2011).

The chains are these.
B1: R764-B7 (HT186-B7 IgG) (antibody, V domains shown)
VH: QMQLVQSGAEVKKPGASVKVSCKASGYTFTGHYMHWVRQAPGQGLEWMGWIDPVTGGTKYAQNFQGWVTMTRDTSIRTAYMELSRLRSDDTAMYYCAREVTGDRGQFDKWGQGTLVTVAS
VL: QSVLTQPPSVSVAPGKTARITCGGNNIGSKSVHWYQQKPGQAPALVIYYGSYRPSGIPERFSGSNYGNTATLTIRRVEAGDEADYYCQVWDSSSDWVFGGGTKLTVLG
notes: Human IgG1, lambda, produced in YB2/0 cells
B2: R764-G2 (HT186-G2 IgG) (antibody, V domains shown)
VH: B1 VH with Q1R, V20L, T30A, Q43R
VL: B1 VL with A44V, Y52D, P54S, Y66S, R75S
notes: as for B1
B3: R764-D11 (HT186-D11 IgG) (antibody, V domains shown)
VH: B1 VH with G8E, V11L, T28S, M81L
VL: B1 VL with Y52N, Y66S, R75S
notes: Human IgG1, lambda, produced in YB2/0 cells; also called R764 HT186-D11

Numbering of substitutions follows the chain as printed.

The target of one experiment is T1, MUC1 (surface cell bound, tumor associated MUC1) (human, UniProt P15941 24-1255, tumor-associated O-glycosylation).
T1 construct: whole, on cells; Endogenous MUC1 on tumor cell lines; also called CD227; CA-15-3
T1 sequence (P15941 24-1255): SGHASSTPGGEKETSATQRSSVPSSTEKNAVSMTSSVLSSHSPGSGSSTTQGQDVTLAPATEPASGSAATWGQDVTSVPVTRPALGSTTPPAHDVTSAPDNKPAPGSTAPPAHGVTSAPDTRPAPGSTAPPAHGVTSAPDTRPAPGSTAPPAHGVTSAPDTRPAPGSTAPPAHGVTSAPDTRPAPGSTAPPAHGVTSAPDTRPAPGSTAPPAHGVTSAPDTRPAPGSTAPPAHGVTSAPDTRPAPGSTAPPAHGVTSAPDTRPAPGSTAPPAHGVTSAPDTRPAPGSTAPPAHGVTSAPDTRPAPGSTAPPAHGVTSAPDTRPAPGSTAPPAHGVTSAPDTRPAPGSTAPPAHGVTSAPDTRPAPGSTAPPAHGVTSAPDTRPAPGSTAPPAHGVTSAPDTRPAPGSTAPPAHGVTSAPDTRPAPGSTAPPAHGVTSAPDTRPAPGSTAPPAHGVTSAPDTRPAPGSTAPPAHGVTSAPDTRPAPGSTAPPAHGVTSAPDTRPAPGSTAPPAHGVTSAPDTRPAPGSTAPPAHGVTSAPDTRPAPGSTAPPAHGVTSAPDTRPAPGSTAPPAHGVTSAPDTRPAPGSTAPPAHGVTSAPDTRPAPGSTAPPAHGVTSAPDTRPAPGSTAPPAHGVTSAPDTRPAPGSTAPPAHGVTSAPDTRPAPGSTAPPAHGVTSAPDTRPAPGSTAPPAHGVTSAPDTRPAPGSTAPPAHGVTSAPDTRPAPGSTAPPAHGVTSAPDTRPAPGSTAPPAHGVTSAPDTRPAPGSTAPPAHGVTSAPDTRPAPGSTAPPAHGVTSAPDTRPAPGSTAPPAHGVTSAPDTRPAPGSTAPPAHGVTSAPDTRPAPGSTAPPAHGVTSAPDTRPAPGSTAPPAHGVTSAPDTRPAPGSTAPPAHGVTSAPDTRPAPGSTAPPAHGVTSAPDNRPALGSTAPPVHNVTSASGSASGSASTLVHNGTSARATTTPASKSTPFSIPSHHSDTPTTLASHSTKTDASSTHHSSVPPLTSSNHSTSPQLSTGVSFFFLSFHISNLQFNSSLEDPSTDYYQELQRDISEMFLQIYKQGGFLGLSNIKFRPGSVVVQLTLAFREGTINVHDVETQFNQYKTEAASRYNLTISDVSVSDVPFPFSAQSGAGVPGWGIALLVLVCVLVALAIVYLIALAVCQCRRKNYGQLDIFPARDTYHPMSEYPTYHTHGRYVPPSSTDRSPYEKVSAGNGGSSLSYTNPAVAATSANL
Nature of the experiment: FACS on T47D cells, antibody at 1.0000 µg/ml. How it is done: (§1) From these antibody solutions further dilution by a factor of 3.162 were made (in a PP microtiter plate), so following antibody concentrations were used for FACS (μg/mL): 100, 31.62 10; 3.16; 1; 0.316; 0.1, 0.0316, 0.01, 0.003162
(§2) bound anti-MUC1 antibodies were detected by: goat anti-human IgG (H+L) Alexa488 conj. 1:200=10 μg/mL final (Invitrogen resp. Molecular probes Cat.No. A-11013) in 100 μL FACS buffer in total: 38.5 μL (stock: 2 mg/mL) were given to 7661.5 μL FACS buffer
(§3) The measurement was performed on a Beckman Coulter Cytomics FC500. Gates were set by analyzing a mock-control of each cell line w/o any antibody incubation. Specific protocol files (.pro) were saved.
With B1, the MFI worked out at 2.26.

B2: the MFI is 0.605.

Regarding B3, the MFI is 4.72.

Another experiment has as its target T1, MUC1 (surface cell bound, tumor …). Kind of experiment: FACS on T47D cells, antibody at 0.0100 µg/ml. How it is done:
as §1, §2, §3
B1 showed an MFI of 1.11.

Take B2: the MFI amounted to 0.767.

In turn, B3 came in with an MFI of 1.09.

A further experiment shares this target. Nature of the experiment: FACS on T47D cells, antibody at 0.1000 µg/ml. As for the experimental part:
as §1, §2, §3
B1 displayed an MFI of 0.728.

In turn, B2 showed an MFI of 0.664.

Consider B3, for which the MFI was found to be 1.45.

The target is the same in another experiment. Nature of the experiment: FACS on T47D cells, antibody at 3.1623 µg/ml. As for the experimental part:
as §1, §2, §3
For B1, the MFI was 4.96.

Molecule B2 came in with an MFI of 0.802.

As for B3, the MFI is 7.92.

For a further experiment the target is unchanged. Kind of experiment: FACS on T47D cells, antibody at 0.0032 µg/ml. How it is done:
as §1, §2, §3
Regarding B1, the MFI is 0.738.

B2 showed an MFI of 0.706.

Regarding B3, the MFI amounted to 1.17.

The next experiment shares this target. Nature of the experiment: FACS on T47D cells, antibody at 31.6228 µg/ml. How it is done: as §1, §2, §3
In turn, B1 showed an MFI of 9.16.

In turn, B2 gave an MFI of 3.68.

In turn, B3 displayed an MFI of 13.2.

The target is the same in another experiment. Nature of the experiment: FACS on T47D cells, antibody at 100.0000 µg/ml. As for the experimental part: as §1, §2, §3
In turn, B1 gave an MFI of 12.6.

The molecule B2 yielded an MFI of 6.15.

As for B3, the MFI is 17.4.

For a further experiment the target is unchanged. Kind of experiment: FACS on T47D cells, antibody at 0.3162 µg/ml. How it is done:
as §1, §2, §3
In turn, B1 yielded an MFI of 1.44.

Take B2: the MFI turned out to be 0.515.

As to B3, the MFI was 1.96.

For a further experiment the target is unchanged. Kind of experiment: FACS on T47D cells, antibody at 0.0316 µg/ml. As for the experimental part: as §1, §2, §3
Molecule B1 returned an MFI of 1.04.

On to B2, for which the MFI turned out to be 1.04.

In turn, B3 gave an MFI of 1.13.

For the next experiment the target is unchanged. Nature of the experiment: FACS on T47D cells, antibody at 10.0000 µg/ml. As for the experimental part:
as §1, §2, §3
Consider B1, for which the MFI is 6.56.

B2 yielded an MFI of 1.99.

Consider B3, for which the MFI was determined as 11.1.
